Positions count from the first letter of the chain named.
B1: humanized antibody No. 92 (antibody, human IgG1, kappa)
heavy: QIQLVQSGSELKKPGASVKVSCKASGYTFTDYSMHWVRQAPGQGLKWMGWINTETGEPTYADDFKGRFVFSLDTSVSTAYLQISSLKAEDTAVYYCARIPLYYYGSRYWYFDVWGQGTTVTVSSASTKGPSVFPLAPSSKSTSGGTAALGCLVKDYFPEPVTVSWNSGALTSGVHTFPAVLQSSGLYSLSSVVTVPSSSLGTQTYICNVNHKPSNTKVDKRVEPKSCDKTHTCPPCPAPPAAAPSVFLFPPKPKDTLMISRTPEVTCVVVDVSHEDPEVQFNWYVDGVEVHNAKTKPREEQFNSTFRVVSVLTVVHQDWLNGKEYKCKVSNKGLPAPIEKTISKTKGQPREPQVYTLPPSREEMTKNQVSLTCLVKGFYPSDIAVEWESNGQPENNYKTTPPMLDSDGSFFLYSKLTVDKSRWQQGNVFSCSVMHEALHNHYTQKSLSLSPG
light: DIQMTQSPSSLSASVGDRVTITCRASENIYRNLAWYQQKPGKAPQLLLYAATNLADGVPSRFSGSGSGTDYTLTISSLQPEDFATYYCQHFWGTPWTFGQGTKVEIKRTVAAPSVFIFPPSDEQLKSGTASVVCLLNNFYPREAKVQWKVDNALQSGNSQESVTEQDSKDSTYSLSSTLTLSKADYEKHKVYACEVTHQGLSSPVTKSFNRGEC
notes: human Ig kappa; also called L1-6/HK4
B2: humanized antibody No. 138 (antibody, human IgG2)
heavy: QIQLVQSGSELKKPGASVKVSCKASGYTFTDYSMHWVRQAPGQGLKWMGWINTETGEPTYAQGFTGRFVFSLDTSVSTAYLQISSLKAEDTAVYYCARIPLYYYGSRYWYFDVWGQGTTVTVSSASTKGPSVFPLAPSSRSTSESTAALGCLVKDYFPEPVTVSWNSGALTSGVHTFPAVLQSSGLYSLSSVVTVPSSNFGTQTYTCNVDHKPSNTKVDKTVERKSCVECPPCPAPPAAAPSVFLFPPKPKDTLMISRTPEVTCVVVDVSHEDPEVQFNWYVDGVEVHNAKTKPREEQFNSTFRVVSVLTVVHQDWLNGKEYKCKVSNKGLPAPIEKTISKTKGQPREPQVYTLPPSREEMTKNQVSLTCLVKGFYPSDIAVEWESNGQPENNYKTTPPMLDSDGSFFLYSKLTVDKSRWQQGNVFSCSVMHEALHNHYTQKSLSLSPG
light: B1 light with Q45K, L48V
notes: human Ig kappa; also called L1-4/HA4
B3: humanized antibody No. 156 (antibody, human IgG2)
heavy: B2 heavy
light: B1 light
notes: human Ig kappa; also called L1-6/HA4
B4: humanized antibody No. 87 (antibody, human IgG1, kappa)
heavy: B1 heavy with I2V, K46E, D62Q, D63G, K65T
light: B1 light
notes: human Ig kappa; also called L1-6/HA1
B5: humanized antibody No. 88 (antibody, human IgG1, kappa)
heavy: B1 heavy with I2V, D62Q, D63G, K65T
light: B1 light
notes: human Ig kappa; also called L1-6/HA2
B6: humanized antibody No. 154 (antibody, human IgG2)
heavy: B2 heavy with I2V, K46E, Q62D, G63D, T65K
light: B1 light with Q45K, P80S
notes: human Ig kappa; also called L1-5/HK1
B7: humanized antibody No. 153 (antibody, human IgG2)
heavy: B2 heavy with I2V
light: B1 light with Q45K, P80S
notes: human Ig kappa; also called L1-5/HA2
B8: humanized antibody No. 91 (antibody, human IgG1, kappa)
heavy: B1 heavy with I2V
light: B1 light
notes: human Ig kappa; also called L1-6/HK2
B9: humanized antibody No. 157 (antibody, human IgG2)
heavy: B2 heavy with I2V, K46E
light: B1 light
notes: as for B4
B10: humanized antibody No. 139 (antibody, human IgG2)
heavy: B2 heavy with I2V, K46E
light: B1 light with Q45K, L48V
notes: human Ig kappa; also called L1-4/HA1
B11: humanized antibody No. 143 (antibody, human IgG2)
heavy: B2 heavy with Q62D, G63D, T65K
light: B1 light with Q45K, L48V
notes: human Ig kappa; also called L1-4/HK4

What was measured:
[1] = molecular target: T1, human EphA4 extracellular region-SEAP-His protein (human, UniProt P54764 20-547); experiment: SPR, Ab captured
T1 construct: also called hEphA4-SEAP-His
T1 sequence (P54764 20-547): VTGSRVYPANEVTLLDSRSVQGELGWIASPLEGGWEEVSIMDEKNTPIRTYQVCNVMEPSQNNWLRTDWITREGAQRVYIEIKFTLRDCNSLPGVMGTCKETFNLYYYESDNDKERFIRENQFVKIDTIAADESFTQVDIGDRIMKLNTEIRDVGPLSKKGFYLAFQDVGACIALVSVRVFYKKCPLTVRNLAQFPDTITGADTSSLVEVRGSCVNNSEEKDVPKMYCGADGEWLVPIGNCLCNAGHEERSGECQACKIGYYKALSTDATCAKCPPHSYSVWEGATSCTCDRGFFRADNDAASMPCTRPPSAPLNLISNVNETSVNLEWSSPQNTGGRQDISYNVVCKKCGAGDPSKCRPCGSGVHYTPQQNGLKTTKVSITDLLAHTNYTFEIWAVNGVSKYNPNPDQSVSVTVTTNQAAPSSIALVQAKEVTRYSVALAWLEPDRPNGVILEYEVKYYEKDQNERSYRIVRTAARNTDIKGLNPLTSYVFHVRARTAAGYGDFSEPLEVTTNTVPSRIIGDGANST
Protocol: The binding affinity of each anti-EphA4 monoclonal humanized antibody obtained in Example 16 for human EphA4 was determined by surface plasmon resonance (SPR) using Biacore T200 (GE Healthcare). First, for the assay of antibody A, a rat anti-mouse IgG₁ antibody produced with a conventional method by immunizing rat with mouse IgG₁ antibody was immobilized on sensor chip CM5. The immobilization of the rat anti-mouse IgG1 antibody on sensor chip CM5 was performed by the amine coupling method using N-hydroxysuccinimide (NHS) and N-ethyl-N′-(3-dimethylaminopropyl)carbodiimide hydrochloride (EDC). Ethanolamine was used in blocking (the sensor chip and the reagents for immobilization were all manufactured by GE Healthcare). The antibody was diluted with a buffer solution for immobilization (10 mM sodium acetate, pH 4.5) and immobilized on the sensor chip according to the protocol attached to Biacore T200. For the assay of each humanized monoclonal antibody, a protein A chip (GE Healthcare, 29-1383-03) was used. Antibody A or the humanized monoclonal antibody was diluted with a running buffer solution HBS-EP (GE Healthcare), injected onto only flow cell 2 for 120 seconds, and captured (captured amount: approximately 30 to 60 RU). Subsequently, human EphA4 extracellular region-SEAP-His protein serially diluted in the range of 50, 16.7, 5.6, 1.9, and 0.6 nM using HBS-EP was sequentially added from the lower toward higher concentration sides without regeneration operation. Binding reaction curves were sequentially observed at the time of the addition (association phase, for 120 sec) and after the completion of the addition (dissociation phase, for 900 sec). After the completion of each observation, the sensor chip was regenerated by the addition of 3 M MgCl₂ (for 60 sec) or 10 mM Glycine-HCl pH 1.5 (for 30 sec). The obtained binding reaction curves were subjected to fitting analysis with 1:1 binding models using software BIA evaluation attached to the system to calculate the affinity (KD=kd/ka) for human EphA4 (Table 6).

[2] = molecular target: T1, human EphA4 extracellular …; experiment: competition ELISA, competitor human Ephrin A5-Fc
Protocol: Each anti-EphA4 monoclonal humanized antibody obtained in Example 16 was evaluated for its inhibitory activity against the binding between human EphA4 and its human ligand according to the following steps. Each well of a 96-well plate (Nunc) was coated with an anti-alkaline phosphatase antibody (Thermo Fisher Scientific). After incubation overnight at 4° C., each well was blocked with 1% BlockAce (DS Pharma Biomedical) at room temperature for 1 hour. After washing with 0.05% Tween 20/PBS (Thermo Fisher Scientific) three times, the human EphA4 extracellular region-SEAP-His protein obtained by the method of Example 2 was added (final concentration: 10 nM) to each well and incubated at room temperature for 1 hour. After washing three times, a ligand and each serially diluted humanized antibody of antibody A (0, 0.003, 0.01, 0.03, 0.1, 0.3, 1, 3, 10, 30, 100, 300, 1000, and 3000 nM) were added to each well. The ligand used was biotinylated human Ephrin A5-Fc chimera (R&D Systems, final concentration: 0.7 nM). After incubation at room temperature for 1 hour and subsequent washing three times, horseradish peroxidase-labeled streptavidin (GE Healthcare) was added thereto and incubated at room temperature for 1 hour. After washing three times, a TMBZ (3,3′,5,5′-tetramethylbenzidine, Sigma-Aldrich) solution was added to each well and incubated at room temperature for 2 minutes. An equal amount of a reaction stopping solution (1N H₂SO₄, Wako Pure Chemical Industries) was added to each well. The absorbance at 450 nm was read using a microplate reader (PerkinElmer).

Binder	Kd [1] [nM]	koff [1] [s⁻¹]	kon [1] [M⁻¹ s⁻¹]	IC50 [2] [nM]
B1	1.3	0.00043	330000	3.5
B2	1.3	0.00043	330000	2.9
B3	1.6	0.00056	310000	2.5
B4	1.5	0.00051	350000	3
B5	1.4	0.00042	300000	3.6
B6	2.2	~0.00085	390000	2.5
B7	2.1	0.0006	290000	2.3
B8	1.3	0.00044	330000	4.9
B9	2	0.00068	350000	2.6
B10	1.4	0.00053	370000	3.3
B11	1.5	0.00051	350000	5.3

— US20190077860A1 (EISAI R AND D MANAGEMENT, published 2019)
